What was measured:
[1] = target: CD20 on living lymphoma cells (Raji, Rael, Daudi) (UniProt P11836); experiment: immunoreactive fraction, modified Lindmo method on lymphoma cells; 1 experiment
[2] = target: CD20 on living lymphoma cells (Raji, Rael, Daudi) (UniProt P11836); experiment: ^125I-labeled antibody on Rael cells, one-step curve fit of specific binding against time and concentration
[3] = target: CD20 on living lymphoma cells (Raji, Rael, Daudi) (UniProt P11836); experiment: immunoreactive fraction, modified Lindmo method on lymphoma cells; mean ± SD of 6 experiments
[4] = target: CD20 on living lymphoma cells (Raji, Rael, Daudi) (UniProt P11836); experiment: ^125I-labeled antibody on Raji cells, one-step curve fit of specific binding against time and concentration
[5] = target: T1, human CD37 on living lymphoma cells (Raji, Rael, Daudi) (human, UniProt P11049 1-281); experiment: ^125I-labeled antibody on Rael cells, one-step curve fit of specific binding against time and concentration
T1 construct: whole, on cells; Target of HH1 and of the three bought anti-CD37 antibodies on cell lines; also called CD37 antigen
T1 sequence (looked up): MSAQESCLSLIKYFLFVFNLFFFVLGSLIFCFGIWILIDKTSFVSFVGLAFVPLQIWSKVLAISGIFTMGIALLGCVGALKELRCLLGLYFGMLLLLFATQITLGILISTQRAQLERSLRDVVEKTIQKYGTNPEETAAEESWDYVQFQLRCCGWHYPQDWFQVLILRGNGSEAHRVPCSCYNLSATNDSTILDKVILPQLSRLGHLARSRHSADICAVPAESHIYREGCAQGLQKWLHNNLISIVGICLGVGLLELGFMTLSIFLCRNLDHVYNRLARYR
Experimental: (§1) The association rate constant, kₐ, the equilibrium dissociation constant, Kd, and the mean number of binding sites, Bₘₐₓ, was determined by a one-step curve fitting method (Dahle et al. 2007). The binding parameters were measured for HH1 and rituximab and for three different lymphoma cell lines; Raji, Rael and Daudi cells (Table 2). Specific binding was measured as a function of time and antibody concentration, and the solution of the differential equation describing the net rate of formation of the antigen-antibody complex was fitted to the experimental data points using the association rate constant, kₐ, the equilibrium dissociation constant, Kd, and the mean number of binding sites, Bₘₐₓ, as parameters. Five million cells pr ml were used, four concentrations of ¹²⁵I-labeled antibody (100 ng/ml, 1000 ng/ml, 5000 ng/ml and 10000 ng/ml) and 7 incubation time points (5 min, 10 min, 20 min, 30 min, 1 h, 1.5 h and 2 h). After incubation, cells were washed twice with PBS, and then counted in a gamma counter.

[6] = target: T1, human CD37 on living lymphoma cells …; experiment: ^125I-labeled antibody on Daudi cells, one-step curve fit of specific binding against time and concentration
Experimental: as §1

[7] = target: T1, human CD37 on living lymphoma cells …; experiment: ^125I-labeled antibody on Raji cells, one-step curve fit of specific binding against time and concentration
Experimental: as §1

Chain of CD20 on living lymphoma cells (Raji, Rael, Daudi) (P11836 whole entry): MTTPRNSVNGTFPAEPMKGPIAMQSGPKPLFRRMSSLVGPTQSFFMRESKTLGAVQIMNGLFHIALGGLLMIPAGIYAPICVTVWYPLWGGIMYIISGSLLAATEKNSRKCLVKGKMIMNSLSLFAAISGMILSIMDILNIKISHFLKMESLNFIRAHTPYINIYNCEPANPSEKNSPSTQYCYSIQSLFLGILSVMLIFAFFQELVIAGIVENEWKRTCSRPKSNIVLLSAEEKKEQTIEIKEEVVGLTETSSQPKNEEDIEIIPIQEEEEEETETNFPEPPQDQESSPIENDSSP

Molecule: ^177Lu-rituximab (antibody)
- IRF (%) [1]: 60%

Molecule: ^111In-rituximab (antibody)
- IRF (%) [1]: 45%

Molecule: ^125I-rituximab (antibody)
- Bmax(Ag/cell) [2]: 626000 Ag/cell
- Kd [2]: 12 nM
- IRF (%), mean [3]: 62%
- Bmax(Ag/cell) [4]: 272000 Ag/cell
- Kd [4]: 4.8 nM

B1: ^125I-labeled HH1 (antibody, V domains shown)
VH: EIQLQQSGPELVKPGASVKVSCKASGYSFTDYNMYWVKQSHGKSLEWIGYIDPYNGDTTYNQKFKGKATLTVDKSSSTAFIHLNSLTSEDSAVYYCARSPYGHYAMDYWGQGTSVTVSS
VL: DIVMTQSHKLLSTSVGDRVSITCKASQDVSTAVDWYQQKPGQSPKLLINWASTRHTGVPDRFTGSGSGTDYTLTISSMQAEDLALYYCRQHYSTPFTFGSGTKLEIK
modifications: ^125I by indirect iodination with IODOGEN tubes; chain and residues not stated
- Kd [5]: 12.7 nM
- Kd [6]: 2.7 nM
- Kd [7]: 6.3 nM
